The record followed here is patent publication US20250257107.

The series has as its target fusion of human collagen type I, alpha 1 solubility-enhancing sequence (HsCol1a1-27), TEV cleavage site ENLYFQG and human keratin type 31 polypeptide fragment (K31).

B1: AcTEV protease (protein)
chain: GESLFKGPRDYNPISSTICHLTNESDGHTTSLYGIGFGPFIITNKHLFRRNNGTLLVQSLHGVFKVKNTTTLQQHLIDGRDMIIIRMPKDFPPFPQKLKFREPQREERICLVTTNFQTKSMSSMVSDTSCTFPSSDGIFWKHWIQTKDGQCGSPLVSTRDGFIVGIHSASNFTNTNNYFTSVPKNFMELLTNQEAQQWVSGWRLNADSVLWGGHKVFMSKPEEPFQPVKEATQLMNELVYSQ
In the case of B1, the “cleavage of the fusion protein, SDS-PAGE with Coomassie Blue” value is given as “confirm that the cleavage was successful”.
